Our source for the Signal block Ca2+ and EC50 values is US20240352134A1.

In assay [1] the target is human CCR8 (human) (UniProt P51685). Put plainly: cell-based or functional assay.
The target is the same in assay [2]. As to the kind of experiment: binding affinity EC50, comparison of Table 12 (FACS on CCR8-expressing cells).

human CCR8 (human), sequence (P51685 whole entry): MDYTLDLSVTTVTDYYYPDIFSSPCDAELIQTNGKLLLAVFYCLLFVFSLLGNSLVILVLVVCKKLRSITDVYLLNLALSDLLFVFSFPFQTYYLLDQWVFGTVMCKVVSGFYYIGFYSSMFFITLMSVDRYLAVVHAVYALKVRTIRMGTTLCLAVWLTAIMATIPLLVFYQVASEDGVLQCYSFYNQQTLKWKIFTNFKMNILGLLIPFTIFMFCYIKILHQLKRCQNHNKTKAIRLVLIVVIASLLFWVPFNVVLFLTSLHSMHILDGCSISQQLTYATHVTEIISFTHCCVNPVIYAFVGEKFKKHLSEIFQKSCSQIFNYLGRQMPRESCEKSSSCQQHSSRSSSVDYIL

B1: SRF-114 (antibody, from another filing, V domains shown)
VH: QVQLVQSGAEVKKPGASVKVSCKASGYTFTSYYMHWVRQAPGQGLEWMGIINPSGGSTSYAQKFQGRVTMTRDTSTSTVYMELSSLRSEDTAVYYCARAVRNRFRFDYWGQGTLVTVSS
VL: QSALTQPASVSGSPGQSITISCTGTSSDVGSYNLVSWYQQHPGKAPKLMIYEVSKRPSGVSNRFSGSKSGNTASLTISGLQAEDEADYYCSSYAGSSTFVVFGGGTKLTVL
A word on the EC50: it is the concentration needed to bring the measured effect to its halfway point. A high value points to a less potent agent. Molecule B1 returned a Signal block Ca2+ in assay [1] of 179 nM. Further, the EC50 in assay [2] is 3.2 nM.
